Measured values from PMC12345224.
Blank lines part the entries; values can stand above or below the substance they belong to.

Tests used:
Experiment in all cases: bacterial two-hybrid (β-galactosidase activity)
Details in all cases: in vivo, E. coli BTH101; T18 and T25 fusions; parent: est. 1400; read off a plot
FleN^L260R = target: FleN^L260R
FleN^V24L = target: FleN^V24L
FleN^A139V = target: FleN^A139V
FleN^R218C = target: FleN^R218C

response (Miller unites) (FleN^L260R): 1000
Substance: wild-type FleN L260R

response (Miller unites) (FleN^V24L): 130
Substance: wild-type FleN V24L

response (Miller unites) (FleN^A139V): 870
Substance: wild-type FleN A139V

response (Miller unites) (FleN^R218C): 1200
Substance: wild-type FleN R218C
